Consider one molecule from US20110110945A1, “Immunoglobulin Fusion Proteins and Methods of Making” (TransTech Pharma, Inc., priority 2007, published 2011).

“Also recorded” adds a separate entry of the source.

For one data set, the system named is Fc receptor. The experiment in a line: Fc receptor activation: TNF-α secretion from THP-1 cells. The conditions noted are these: well precoated with 10 ug/well heat aggregated protein, 24 hours, FIG. 12.
The target in a further data set is T1, S100b (Homo sapiens, UniProt P04271).
T1 sequence (P04271 1-92): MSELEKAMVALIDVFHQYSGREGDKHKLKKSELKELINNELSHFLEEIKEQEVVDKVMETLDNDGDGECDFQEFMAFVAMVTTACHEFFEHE
The experiment in a line: In vitro ligand binding assay (ELISA), immobilized S100b. As to conditions: ligand 5 micrograms per well; dilutions of initial fusion protein solution; FIG. 7. The procedure: For example, the fusion protein may be used in a binding assay to identify potential ligands that bind to the non-immunoglobulin protein. In one example embodiment of such a binding assay, a known ligand may coated onto a solid substrate (e.g., Maxisorb plates) at a biologically relevant concentration (e.g., about 5 micrograms per well), where each well contains a total volume of about 100 microliters (μL). The plates may be incubated at 4° C. overnight to allow the ligand to bind to the substrate. Alternatively, shorter incubation periods at higher temperature (e.g., room temperature) may be used. After a period of time to allow for the ligand to bind to the substrate, the assay wells may be aspirated and a blocking buffer (e.g., 1% BSA in 50 mM imidizole buffer, pH 7.2) may be added to block nonspecific binding. […] The fusion protein bound to the immobilized ligand may be detected in a variety of ways. […] The bound complex may be detected by adding a substrate for the secondary antibody complex, e.g., the alkaline phosphatase substrate, para-nitrophenylphosphate (PNPP), and measuring conversion of PNPP to para-nitrophenol (PNP) as an increase in absorbance at 405 nm. […] In the absence of ligand (i.e., coating with only BSA) there was no increase in absorbance. The binding assay of the present invention may be used to quantify ligand binding. […]

Description for Fc receptor: Fc receptor activation was measured by measuring TNF-α secretion from THP-1 cells that express the Fc receptor. […] Fc stimulation results in TNF-α secretion. The amount of TNF-α was measured by an Enzyme Linked Immunoabsorbent Assay (ELISA).
Thus, in this assay, the myeloid cell line, THP-1 (ATTC #TIB-202) was maintained in RPMI-1640 media supplemented with 10% fetal bovine serum per ATCC instructions. […] The amount of TNF-alpha secreted by the THP-1 cells was measured in supernatants collected from 24 hours cultures of cells in the treated wells using a commercially available TNF ELISA kit (R&D Systems, Minneapolis, Minn. #DTA00C) per instructions.

B1: TTP-4000: RAGE fusion protein: V and C1 domains of human RAGE (amino acids 1-251) linked to hinge-less CH2 and CH3 of human IgG1; SEQ ID NO: 16/18 (protein)
chain 1: MAAGTAVGAWVLVLSLWGAVVGAQNITARIGEPLVLKCKGAPKKPPQRLEWKLNTGRTEAWKVLSPQGGGPWDSVARVLPNGSLFLPAVGIQDEGIFRCQAMNRNGKETKSNYRVRVYQIPGKPEIVDSASELTAGVPNKVGTCVSEGSYPAGTLSWHLDGKPLVPNEKGVSVKEQTRRHPETGLFTLQSELMVTPARGGDPRPTFSCSFSPGLPRHRALRTAPIQPRVWEPVPLEEVQLVVEPEGGAVAPPSVFLFPPKPKDTLMISRTPEVTCVVVDVSHEDPEVKFNWYVDGVEVHNAKTKPREEQYNSTYRVVSVLTVLHQDWLNGKEYKCKVSNKALPAPIEKTISKAKGQPREPQVYTLPPSRDELTKNQVSLTCLVKGFYPSDIAVEWESNGQPENNYKTTPPVLDSDGSFFLYSKLTVDKSRWQQGNVFSCSVMHEALHNHYTQKSLSLSPGK
chain 2: ENITARIGEPLVLKCKGAPKKPPQRLEWKLNTGRTEAWKVLSPQGGGPWDSVARVLPNGSLFLPAVGIQDEGIFRCQAMNRNGKETKSNYRVRVYQIPGKPEIVDSASELTAGVPNKVGTCVSEGSYPAGTLSWHLDGKPLVPNEKGVSVKEQTRRHPETGLFTLQSELMVTPARGGDPRPTFSCSFSPGLPRHRALRTAPIQPRVWEPVPLEEVQLVVEPEGGAVAPPSVFLFPPKPKDTLMISRTPEVTCVVVDVSHEDPEVKFNWYVDGVEVHNAKTKPREEQYNSTYRVVSVLTVLHQDWLNGKEYKCKVSNKALPAPIEKTISKAKGQPREPQVYTLPPSRDELTKNQVSLTCLVKGFYPSDIAVEWESNGQPENNYKTTPPVLDSDGSFFLYSKLTVDKSRWQQGNVFSCSVMHEALHNHYTQKSLSLSPGK
modifications: synthetic four domain RAGE-Fc IgG fusion protein; synthetic four domain RAGE-Fc IgG fusion protein having signal sequence removed
B1: in the data set on Fc receptor, the “TNF generated (Fc receptor activation)” value is recorded as “less than 2 ng/well”. Besides, the “binding to immobilized S100b (increase in absorbance at 405 nm)” value with S100b is “able to bind; also recorded: specifically interact”.
